Earlier results as cited in article PMC6163503.

Key:
[1] = target: JAK2 catalytic domain (Homo sapiens) (UniProt O60674); test: SPR
[2] = target: Aminopeptidase N (Homo sapiens) (UniProt P15144)
Sequence of UniProt P15144 (P15144 2-967): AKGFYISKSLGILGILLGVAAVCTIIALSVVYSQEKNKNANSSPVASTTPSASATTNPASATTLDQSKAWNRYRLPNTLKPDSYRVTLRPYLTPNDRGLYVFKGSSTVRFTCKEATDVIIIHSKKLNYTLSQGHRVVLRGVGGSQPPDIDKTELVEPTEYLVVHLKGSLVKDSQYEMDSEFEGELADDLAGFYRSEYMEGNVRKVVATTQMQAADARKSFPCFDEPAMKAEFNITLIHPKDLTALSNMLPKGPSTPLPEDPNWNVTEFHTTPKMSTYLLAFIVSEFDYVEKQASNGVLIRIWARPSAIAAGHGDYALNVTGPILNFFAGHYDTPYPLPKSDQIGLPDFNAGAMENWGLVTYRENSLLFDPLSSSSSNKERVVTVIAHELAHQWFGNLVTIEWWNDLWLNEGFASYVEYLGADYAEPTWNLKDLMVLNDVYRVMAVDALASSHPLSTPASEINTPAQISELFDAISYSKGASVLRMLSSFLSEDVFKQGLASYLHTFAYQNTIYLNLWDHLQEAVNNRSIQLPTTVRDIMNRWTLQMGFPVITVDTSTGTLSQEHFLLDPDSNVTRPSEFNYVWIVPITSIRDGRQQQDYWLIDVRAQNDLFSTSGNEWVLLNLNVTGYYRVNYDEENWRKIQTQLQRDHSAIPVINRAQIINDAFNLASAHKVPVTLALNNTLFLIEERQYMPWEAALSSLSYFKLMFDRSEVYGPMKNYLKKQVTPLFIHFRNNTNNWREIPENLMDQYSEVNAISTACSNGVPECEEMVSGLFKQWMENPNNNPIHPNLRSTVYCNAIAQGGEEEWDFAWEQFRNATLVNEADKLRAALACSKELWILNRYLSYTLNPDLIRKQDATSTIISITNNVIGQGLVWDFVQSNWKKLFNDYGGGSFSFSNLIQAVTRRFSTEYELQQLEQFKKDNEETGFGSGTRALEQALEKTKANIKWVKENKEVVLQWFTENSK

Sequence of UniProt O60674 (O60674 849-1124): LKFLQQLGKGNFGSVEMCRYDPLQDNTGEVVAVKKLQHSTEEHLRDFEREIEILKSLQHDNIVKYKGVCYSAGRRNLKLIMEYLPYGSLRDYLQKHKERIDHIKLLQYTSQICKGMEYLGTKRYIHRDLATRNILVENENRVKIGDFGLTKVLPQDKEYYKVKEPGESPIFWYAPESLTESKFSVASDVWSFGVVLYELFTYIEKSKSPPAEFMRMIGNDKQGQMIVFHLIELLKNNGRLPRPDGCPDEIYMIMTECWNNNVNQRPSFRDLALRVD

| Substance | Kd [1] [µM] | Ki [2] [µM] |
| --- | --- | --- |
| SOCS3 ESS peptide ESS (from UniProt O14543) | > 1000 | – |
| SOCS3 KIR peptide KIR (from UniProt O14543) | 2.03 | – |
| SOCS3 KIRESS peptide KIRESS (from UniProt O14543) | 1.86 | – |
| cyc-LHSPW | – | 24.7 |
